Laboratory results published in the Human Domainome abundance scans (Beltran et al. 2025).
± gives the uncertainty stated by the source.

B1: Tyrosine-protein kinase BTK, residues 215 to 273; numbered along this chain, Q06187 (parent)
chain: ELKKVVALYDYMPMNANDLQLRKGDEYFILEESNLPWWRARDKNGQEGYIPSNYVTEAE

Variants of: B1
Assay: abundance fitness (aPCA) (normalised: wild type 0, dead -1); higher = more abundant; growth selection in yeast, the domain comes from the species named
Conditions: Homo sapiens

Row | Variant | abundance fitness
1 | W37Q | 0.021 ± 0.058
2 | W37F | -0.011 ± 0.051
3 | W37C | 0.029 ± 0.05
4 | W37L | -0.014 ± 0.032
5 | W37T | 0.036 ± 0.045
6 | W37K | 0.027 ± 0.056
7 | W37G | -0.134 ± 0.036
8 | W37Y | -0.018 ± 0.054
9 | W37M | 0.006 ± 0.044
10 | W37E | 0.011 ± 0.054
11 | W37H | 0.014 ± 0.062
12 | W37D | -0.129 ± 0.056
13 | W37V | 0.013 ± 0.037
14 | W37S | -0.017 ± 0.036
15 | W37P | -0.227 ± 0.052
16 | W37I | -0.097 ± 0.071
17 | W37A | -0.03 ± 0.047
18 | P36R | -0.029 ± 0.032
19 | P36D | -0.013 ± 0.065
20 | P36K | 0.011 ± 0.072
21 | P36T | -0.1 ± 0.058
22 | P36E | -0.024 ± 0.057
23 | P36W | -0.17 ± 0.051
24 | P36S | -0.013 ± 0.038

Row | Variant | abundance fitness
25 | P36Q | 0.002 ± 0.054
26 | P36F | -0.437 ± 0.15
27 | P36C | -0.072 ± 0.049
28 | P36V | -0.077 ± 0.055
29 | P36N | -0.075 ± 0.071
30 | P36L | -0.094 ± 0.058
31 | P36Y | -0.148 ± 0.058
32 | P36A | 0.012 ± 0.049
33 | P36G | -0.089 ± 0.038
34 | P36I | -0.294 ± 0.29
35 | Y49M | 0.023 ± 0.047
36 | Y49P | -0.374 ± 0.054
37 | Y49L | 0.003 ± 0.033
38 | Y49V | -0.018 ± 0.038
39 | Y49S | -0.046 ± 0.042
40 | Y49T | -0.019 ± 0.05
41 | Y49H | -0.074 ± 0.074
42 | Y49E | -0.088 ± 0.057
43 | Y49W | -0.026 ± 0.047
44 | Y49Q | 0.064 ± 0.063
45 | Y49K | -0.056 ± 0.063
46 | Y49I | 0.001 ± 0.061
47 | Y49C | -0.024 ± 0.053
48 | Y49R | 0.04 ± 0.036

Row | Variant | abundance fitness
49 | Y49D | -0.032 ± 0.065
50 | Y49F | -0.033 ± 0.057
51 | Y49A | -0.037 ± 0.049
52 | E47D | -0.011 ± 0.08
53 | E47T | -0.061 ± 0.042
54 | E47Y | -0.268 ± 0.057
55 | E47G | -0.451 ± 0.05
56 | E47M | -0.156 ± 0.05
57 | E47Q | -0.113 ± 0.059
58 | E47W | -0.104 ± 0.044
59 | E47K | -0.107 ± 0.061
60 | E47H | -0.219 ± 0.07
61 | E47V | -0.05 ± 0.041
62 | E47L | -0.163 ± 0.035
63 | E47I | -0.142 ± 0.072
64 | E47R | -0.244 ± 0.036
65 | E47N | -0.115 ± 0.067
66 | E47A | -0.086 ± 0.051
67 | E47P | -0.473 ± 0.056
68 | E47F | -0.235 ± 0.055
69 | R41A | -0.111 ± 0.041
70 | R41Y | -0.234 ± 0.11
71 | R41S | -0.108 ± 0.039
72 | R41W | -0.19 ± 0.047

Row | Variant | abundance fitness
73 | R41T | -0.097 ± 0.04
74 | R41P | -0.976 ± 0.12
75 | R41E | -0.305 ± 0.069
76 | R41L | -0.072 ± 0.036
77 | R41V | -0.132 ± 0.046
78 | R41C | -0.027 ± 0.078
79 | R41F | -0.142 ± 0.064
80 | R41Q | -0.006 ± 0.057
81 | R41D | -1.08 ± 0.2
82 | R41G | -0.317 ± 0.042
83 | R41N | -0.674 ± 0.12
84 | R41I | -0.158 ± 0.088
85 | R41M | -0.003 ± 0.058
86 | L35C | -0.082 ± 0.049
87 | L35S | -0.041 ± 0.037
88 | L35N | -0.06 ± 0.066
89 | L35W | -0.015 ± 0.043
90 | L35E | -0.022 ± 0.065
91 | L35R | -0.006 ± 0.031
92 | L35V | -0.017 ± 0.039
93 | L35Q | -0.012 ± 0.051
94 | L35I | 0.005 ± 0.065
95 | L35P | 0 ± 0.057
96 | L35H | -0.002 ± 0.079

Row | Variant | abundance fitness
97 | L35M | -0.028 ± 0.047
98 | L35F | 0.012 ± 0.058
99 | L35D | 0.05 ± 0.084
100 | L35K | -0.039 ± 0.047
101 | L35A | -0.08 ± 0.057
102 | D42R | -0.673 ± 0.063
103 | D42L | -0.81 ± 0.052
104 | D42F | -0.843 ± 0.076
105 | D42S | -0.07 ± 0.039
106 | D42N | -0.081 ± 0.071
107 | D42E | -0.23 ± 0.044
108 | D42M | -0.498 ± 0.055
109 | D42A | 0.017 ± 0.042
110 | D42Y | -0.889 ± 0.092
111 | D42C | -0.119 ± 0.055
112 | D42I | -0.995 ± 0.14
113 | D42H | -0.321 ± 0.075
114 | D42K | -0.575 ± 0.085
115 | D42T | -0.065 ± 0.05
116 | D42G | -0.103 ± 0.036
117 | D42P | -0.936 ± 0.12
118 | S33C | -0.039 ± 0.057
119 | S33H | -0.087 ± 0.068
120 | S33M | -0.02 ± 0.05

Row | Variant | abundance fitness
121 | S33F | -0.015 ± 0.052
122 | S33K | 0.009 ± 0.079
123 | S33G | -0.019 ± 0.038
124 | S33Y | -0.065 ± 0.059
125 | S33T | 0.005 ± 0.062
126 | S33V | -0.054 ± 0.039
127 | S33P | 0.006 ± 0.061
128 | S33A | 0.026 ± 0.046
129 | S33W | -0.072 ± 0.044
130 | S33R | -0.07 ± 0.033
131 | S33Q | 0.016 ± 0.069
132 | S33D | -0.088 ± 0.08
133 | S33E | -0.038 ± 0.062
134 | S33L | -0.06 ± 0.031
135 | P51A | -0.216 ± 0.049
136 | P51L | -0.056 ± 0.041
137 | P51I | -0.581 ± 0.12
138 | P51F | -0.054 ± 0.077
139 | P51D | -0.196 ± 0.13
140 | P51K | -0.106 ± 0.05
141 | P51E | -0.373 ± 0.047
142 | P51G | -0.286 ± 0.034
143 | P51C | -0.126 ± 0.059
144 | P51H | -0.04 ± 0.097

Row | Variant | abundance fitness
145 | G45E | -0.156 ± 0.045
146 | G45F | -0.173 ± 0.073
147 | G45H | -0.118 ± 0.12
148 | G45K | -0.125 ± 0.053
149 | G45N | 0.008 ± 0.093
150 | G45W | -0.224 ± 0.036
151 | G45R | -0.16 ± 0.032
152 | G45V | -0.641 ± 0.046
153 | G45D | -0.057 ± 0.065
154 | G45Q | -0.144 ± 0.05
155 | G45L | -0.08 ± 0.038
156 | G45A | -0.073 ± 0.04
157 | G45I | -0.809 ± 0.15
158 | G45T | -0.425 ± 0.062
159 | G45P | -1.05 ± 0.15
160 | G45C | -0.162 ± 0.064
161 | G45S | -0.125 ± 0.04
162 | G45Y | -0.062 ± 0.072
163 | N34P | 0.031 ± 0.053
164 | N34T | 0.029 ± 0.054
165 | N34A | 0.026 ± 0.044
166 | N34R | -0.002 ± 0.043
167 | N34C | 0.046 ± 0.1
